# Laboratory results from publication PMC7435236, “Self‐Assembling Glycopeptide Conjugate as a Versatile Platform for Mimicking Complex Polysaccharides” (Advanced Science, 2020).
# Tested on: splenocytes from immunized mice
# Assay: IFN‐γ production by splenocytes of immunized mice after in vitro re-stimulation (ELISA)
# Type: in vivo, C57BL/6 mice
# Conditions: spleen cells from vaccinated mice (NPs plus OVA, or OVA only), OVA stimulation 48 h in vitro
# Experimental: To further investigate the activation ability of mannosylated nanoparticles, the spleen cells from mice that vaccinated for 4 weeks with mannosylated NPs plus OVA (group 1) and OVA only (group 4) were stimulated by OVA for 48 h in vitro. The expression levels of IFN‐γ in cell media with or without OVA stimulation was measured by ELISA (Figure 6c).
# After immunization, the spleens of the immunized mice were removed under sterile conditions and suspended in sterile cold PBS. After centrifugation, the cell suspension was diluted to 2 × 10^6 cells mL^−1 in RPMI 1640 supplemented with 10% FBS, 100 µg mL^−1 streptomycin and 100 unit mL^−1 penicillin, and cultured overnight. After removal of the non‐adherent cells, the medium was changed, and the OVA protein in buffer and PBS buffer only were added to different wells, respectively, and cultured for 48 h. The culture media was then collected and diluted for the ELISA tests. Following the instructions of ELISA kit, the samples, anti‐IFN‐γ antibody, and chromogenic substrates were added in order. The corresponding OD450 was measured by Multiskan GO (Thermo Scientific) microplate reader.
molecule,measurement,value
"OVA: Ovalbumin, model antigen for evaluation of vaccine adjuvants (protein, UniProt P01012 2-386, looked up) Ovalbumin: GSIGAASMEFCFDVFKELKVHHANENIFYCPIAIMSALAMVYLGAKDSTRTQINKVVRFDKLPGFGDSIEAQCGTSVNVHSSLRDILNQITKPNDVYSFSLASRLYAEERYPILPEYLQCVKELYRGGLEPINFQTAADQARELINSWVESQTNGIIRNVLQPSSVDSQTAMVLVNAIVFKGLWEKAFKDEDTQAMPFRVTEQESKPVQMMYQIGLFRVASMASEKMKILELPFASGTMSMLVLLPDEVSGLEQLESIINFEKLTEWTSSNVMEERKIKVYLPRMKMEEKYNLTSVLMAMGITDVFSSSANLSGISSAESLKISQAVHAAHAEINEAGREVVGSAEAGVDAASVSEEFRADHPFLFCIKHIATNAVLFFGRCVSP",IFN‐γ expression in cell media,Upregulation of IFN‐γ
